One block for each substance: values may come before it.
Tests used:
[1] = target: human relaxin family peptide receptor 2 (RXFP2) (human) (UniProt Q8WXD0)
[2] = target: rat relaxin family peptide receptor 2 (RXFP2) (rat) (UniProt Q5ECL0)
[3] = target: human relaxin family peptide receptor 2 (RXFP2) (human) (UniProt Q8WXD0); remark: listed apart in the source
[4] = target: rat relaxin family peptide receptor 2 (RXFP2) (rat) (UniProt Q5ECL0); remark: listed apart in the source
[5] = target: human relaxin family peptide receptor 2 (RXFP2) (human) (UniProt Q8WXD0); remark: listed apart in the source
[6] = target: human relaxin family peptide receptor 2 (RXFP2) (human) (UniProt Q8WXD0); remark: listed apart in the source
[7] = target: rat relaxin family peptide receptor 2 (RXFP2) (rat) (UniProt Q5ECL0); remark: listed apart in the source
[8] = target: rat RXFP1 (rat) (UniProt Q6R6I6)
Sequence of rat RXFP1 (rat) (Q6R6I6 whole entry): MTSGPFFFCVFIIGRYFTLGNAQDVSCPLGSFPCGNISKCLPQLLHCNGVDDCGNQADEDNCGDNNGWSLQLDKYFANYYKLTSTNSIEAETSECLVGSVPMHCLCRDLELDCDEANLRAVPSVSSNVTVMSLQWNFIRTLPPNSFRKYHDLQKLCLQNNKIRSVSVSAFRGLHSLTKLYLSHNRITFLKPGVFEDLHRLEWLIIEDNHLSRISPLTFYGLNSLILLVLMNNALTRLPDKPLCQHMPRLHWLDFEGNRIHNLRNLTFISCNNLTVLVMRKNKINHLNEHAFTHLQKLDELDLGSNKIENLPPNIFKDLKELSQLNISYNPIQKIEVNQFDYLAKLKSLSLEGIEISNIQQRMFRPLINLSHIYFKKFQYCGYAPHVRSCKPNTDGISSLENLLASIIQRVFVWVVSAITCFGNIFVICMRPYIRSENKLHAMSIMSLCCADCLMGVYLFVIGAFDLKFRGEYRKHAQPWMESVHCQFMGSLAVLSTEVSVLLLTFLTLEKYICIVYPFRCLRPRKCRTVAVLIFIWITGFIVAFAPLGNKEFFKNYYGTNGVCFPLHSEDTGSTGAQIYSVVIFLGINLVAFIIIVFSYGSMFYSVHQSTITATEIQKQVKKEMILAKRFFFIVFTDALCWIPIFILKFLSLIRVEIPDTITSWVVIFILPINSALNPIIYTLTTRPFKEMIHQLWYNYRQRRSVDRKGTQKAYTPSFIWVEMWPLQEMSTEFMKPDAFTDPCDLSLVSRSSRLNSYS

Sequence of rat relaxin family peptide receptor 2 (RXFP2) (rat) (Q5ECL0 entry or part of it): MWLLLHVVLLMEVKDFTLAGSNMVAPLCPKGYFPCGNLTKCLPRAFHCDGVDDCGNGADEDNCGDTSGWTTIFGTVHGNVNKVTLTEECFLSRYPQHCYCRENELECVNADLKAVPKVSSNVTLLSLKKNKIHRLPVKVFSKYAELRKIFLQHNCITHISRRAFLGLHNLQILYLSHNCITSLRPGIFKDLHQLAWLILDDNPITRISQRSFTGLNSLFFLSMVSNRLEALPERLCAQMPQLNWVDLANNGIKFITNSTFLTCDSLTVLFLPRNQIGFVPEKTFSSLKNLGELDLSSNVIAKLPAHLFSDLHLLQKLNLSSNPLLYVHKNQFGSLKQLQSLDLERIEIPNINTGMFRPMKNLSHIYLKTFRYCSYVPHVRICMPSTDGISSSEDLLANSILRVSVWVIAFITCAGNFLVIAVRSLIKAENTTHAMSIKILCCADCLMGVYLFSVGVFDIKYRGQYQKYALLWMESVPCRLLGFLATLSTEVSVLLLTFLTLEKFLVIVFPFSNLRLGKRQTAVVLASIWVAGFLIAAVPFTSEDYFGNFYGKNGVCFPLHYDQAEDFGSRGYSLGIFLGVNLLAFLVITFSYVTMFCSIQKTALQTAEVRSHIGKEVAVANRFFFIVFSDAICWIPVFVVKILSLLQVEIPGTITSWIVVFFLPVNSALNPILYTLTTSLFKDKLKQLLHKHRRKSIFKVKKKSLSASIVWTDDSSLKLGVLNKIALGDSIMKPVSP
Sequence of human relaxin family peptide receptor 2 (RXFP2) (human) (Q8WXD0 whole entry): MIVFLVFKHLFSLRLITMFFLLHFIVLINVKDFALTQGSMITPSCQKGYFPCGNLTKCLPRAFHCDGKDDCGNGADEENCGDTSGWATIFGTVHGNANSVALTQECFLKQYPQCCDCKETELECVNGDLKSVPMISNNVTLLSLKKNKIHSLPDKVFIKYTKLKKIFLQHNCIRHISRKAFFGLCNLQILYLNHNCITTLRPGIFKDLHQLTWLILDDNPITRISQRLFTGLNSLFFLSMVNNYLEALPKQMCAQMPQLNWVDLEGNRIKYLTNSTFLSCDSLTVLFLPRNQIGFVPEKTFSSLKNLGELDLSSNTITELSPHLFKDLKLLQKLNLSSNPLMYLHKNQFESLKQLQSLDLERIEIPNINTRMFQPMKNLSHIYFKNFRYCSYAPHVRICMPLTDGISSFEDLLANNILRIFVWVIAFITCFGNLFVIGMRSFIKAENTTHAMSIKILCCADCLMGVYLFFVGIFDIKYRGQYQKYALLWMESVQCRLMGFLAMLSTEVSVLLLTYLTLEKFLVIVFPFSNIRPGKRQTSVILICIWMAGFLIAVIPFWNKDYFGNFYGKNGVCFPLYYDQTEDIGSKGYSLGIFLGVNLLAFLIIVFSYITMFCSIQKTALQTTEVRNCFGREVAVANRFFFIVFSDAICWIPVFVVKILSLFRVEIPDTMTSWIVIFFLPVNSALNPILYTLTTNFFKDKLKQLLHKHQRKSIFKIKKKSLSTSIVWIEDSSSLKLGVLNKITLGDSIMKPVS
Sequence of Human INSL3 (insulin-like peptide 3) (ligand) (P51460 21-131): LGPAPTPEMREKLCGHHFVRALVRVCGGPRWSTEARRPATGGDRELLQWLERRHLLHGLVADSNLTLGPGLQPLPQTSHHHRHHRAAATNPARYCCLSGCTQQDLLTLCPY
Sequence of INSL3 (species not stated for the stable HEK293 cAMP assays) (ligand) (P51460 21-131): as above
Sequence of relaxin (H2 Relaxin) (ligand) (P04090 25-185): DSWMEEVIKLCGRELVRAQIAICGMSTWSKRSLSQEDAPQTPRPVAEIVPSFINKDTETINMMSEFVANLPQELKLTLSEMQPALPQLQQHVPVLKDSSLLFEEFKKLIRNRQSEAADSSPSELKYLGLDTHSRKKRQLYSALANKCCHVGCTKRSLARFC

EC50, INSL3-induced cAMP (HTRF) in HEK293 expressing human RXFP2 (BacMam) [1]: 0.048 nM | EC50, INSL3-induced cAMP in HEK293 transiently expressing rat RXFP2 (BacMam) [2]: 13 nM | EC50, CYP11B1 mRNA expression after 48 h in H295R-hRXFP2 [3]: 1.3 nM | EC50, CYP11B2 mRNA expression after 48 h in H295R-hRXFP2 [3]: 2 nM | EC50, cAMP generation after 30 min in H295R stably expressing human RXFP2 [3]: 4 nM | EC50, CYP11B1 mRNA expression after 48 h in H295R-rRXFP2 [4]: 0.3 nM | EC50, CYP11B2 mRNA expression after 48 h in H295R-rRXFP2 [4]: 0.4 nM | EC50, INSL3-induced intracellular calcium (FLIPR) in HEK293 Gα16 cells transiently expressing RXFP2 [5]: 13.4 nM
Substance: Human INSL3 (insulin-like peptide 3) (ligand)

EC50, INSL3-induced cAMP generation in HEK293-hRXFP2 (stable) [6]: 2.9 nM | EC50, INSL3-induced cAMP generation in HEK293-rRXFP2 cells (stable) [7]: 8.4 nM
Substance: INSL3 (species not stated for the stable HEK293 cAMP assays) (ligand)

EC50, relaxin-induced cAMP generation in HEK293-rat RXFP1 (stable) [8]: 29.5 nM
Substance: relaxin (H2 Relaxin) (ligand)

— PMC11162469, “Discovery of RXFP2 genetic association in resistant hypertensive men and RXFP2 antagonists for the treatment of resistant hypertension” (Scientific Reports, 2024)
